# In the nanobody polyreactivity screen of Harvey et al. (2022):
# Test: yeast display, Sf9 membrane polyspecificity reagent, FACS + sequencing; frameworks hold sequencing errors
# Method in brief: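 A nanobody's polyreactivity label depends on the gate it was sorted from. Yeast display cells were stained with 10% biotinylated, detergent-solubilized Sf9 membrane reagent for 1 hour at 4 °C, enriched on streptavidin microbeads and sorted by FACS. The low and high (top ~1%) gates were set on anti-HA fluorescence for expression and streptavidin fluorescence for reagent binding.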
row,Sequence,polyreactivity (PSR sort gate)
1,QVQLVESGGGLVQAGGSLRLSCAASGFTFVAYAMGWYRQAPGKERELVAAISKSGGNTYYADSVKGRFTISRDNAKNTVYLQMNSLKPEDTAVYYCAAPRRYAWGQVNYWGQGTQVTVSS,high polyreactivity
2,QVQLVESGGGLVQAGGSLRLSCAASGFTFVAYAMGWYRQAPGKERELVAAISRRGGTTYYADSVKGRFTISRDNAKNTVYLQMNSLKPEDTAVYYCNARGFPGKFGYWGQGTQVTVSS,high polyreactivity
3,QVQLVESGGGLVQAGGSLRLSCAASGFTFVDYAMGWYRQAPGKERELVAAISSSGDSTYYADSVKGRFTISRDNAKITVYLQMNSLKPEDTAVYYCAAEYDREEYSGYDYWGQGTQVTVSS,low polyreactivity
4,QVQLVESGGGLVQAGGSLRLSCAASGFTFVDYAMGWYRQAPGKERELVAAITVSGDSTYYADSVKGRFTISRDNAKNTVYLQMNSLKPEDTAVYYCAADPGYYDGGYWGQGTQVTVSS,low polyreactivity
5,QVQLVESGGGLVQAGGSLRLSCAASGFTFVFNARAWYRQAPGKERELVATITNGGSTYYADSVKGRFTISRDNAKNTVYLQMNSLKPEDTAVYYCAAVRKQCSGFDYWGQGTQVTVSS,high polyreactivity
6,QVQLVESGGGLVQAGGSLRLSCAASGFTFVFYAMGWYRQAPGKERELVAAISSRGGSTYYADSVKGRFTISRDNAKNTVDLQMNSLKPEDTAVYYCNVVSTYWTTYEEYYWGQGTQVTVSS,high polyreactivity
7,QVQLVESGGGLVQAGGSLRLSCAASGFTFVGNAMGWYRQAPGKARELVAAIRWTDGSTYYADSVKGRFTISRDNAKNTVYLHMNSLKPEDTAVYYCAKDYRDYARAGDYNVKQADDYWGQGTQVTVSS,low polyreactivity
8,QVQLVESGGGLVQAGGSLRLSCAASGFTFVGNAMGWYRQAPGKERELVAAITSGGSTYYADSVKGRFTISRDNAKNTVYLQMNSLKPEDTAVYYCATGGRGGRRYEYWGQGTQVTVSS,low polyreactivity
9,QVQLVESGGGLVQAGGSLRLSCAASGFTFVGYAMGWYRQEPGKERELVAAISTRGGSTYYADSVKGRFTISRDNAKNTDYLQMNSLKPEDTAVYYCNARGAKRGLLSYYWGQGTQVTVSS,high polyreactivity
10,QVQLVESGGGLVQAGGSLRLSCAASGFTFVHNAMGWYRQAHGKERELVAAISSSGGRTYYADSVKGRFTISRDNAKNTVYLQMNSLKPEDTAVYYCATVNRYGPSYGYWGQGTQVTVSS,high polyreactivity
11,QVQLVESGGGLVQAGGSLRLSCAASGFTFVHYAMGWYRQAPGKETELVAAISSGGSTYYADSVKGRFTISRDNAKNTVYLQLNSLKAEDTAVYYCAALKYSRGVRYGYWGQVTQVTVSS,high polyreactivity
12,QVQLVESGGGLVQAGGSLRLSCAASGFTFVINDMGWYRQAPGKERELVADITSGGDTNYADSVKGRFTISRDNAKNTVYFQMNSLKPEDTAVYYCAADIYPDWIYLLFGYWGQGTQVTVSS,low polyreactivity
13,QVQLVESGGGLVQAGGSLRLSCAASGFTFVNYAMGWYRQAPGKERELVAAIRRSGSRTYYADSVKGRCTISRDIAKYTVYLQMNSLKPDDTPVYYCAAVWYRLYGYWGQGTQVTVSS,low polyreactivity
14,QVQLVESGGGLVQAGGSLRLSCAASGFTFVNYVMGWYRQAHGKERELVAAISRSGGSTYYADSVKGRFTISRDNAKNTVYLQMNSLKPEDTAVYYCAARWFYRAGFNYWGQGTQVTVSS,high polyreactivity
15,QVQLVESGGGLVQAGGSLRLSCAASGFTFVQYAMGWYRQAPGKERELVATISKSGGITYYADSVKGRFTISRDNAKNTVYLQMNSLKPEDTAVYYCAAAWYYSSRGFHATWGHDYWGQGTQVTVSS,low polyreactivity
16,QVQLVESGGGLVQAGGSLRLSCAASGFTFVRNAMGWYRQAPGKERELVAAISGSGGRTYYADSVKGRFTISRDNAKNTVYLQMNSLKPEDTAVYDCNTASAYEYEYWGQGTQVTVSS,high polyreactivity
17,QVQLVESGGGLVQAGGSLRLSCAASGFTFVRNTLGWYRQAPGKERELVATITFSGGSTYYADSVKGRFTISRDNAKNTVYLQMNTLKPEDTAVYYCAAEDWDDGYDYWGQGTQVTVSS,high polyreactivity
18,QVQLVESGGGLVQAGGSLRLSCAASGFTFVRNTMGWYRQAPGKERELVAAISRSGGSTYYADSVKGRFTISRDNAKNTVYLQMNSLKPEDTAVYYCNAYRYVHYDWGQGTQVTVSS,high polyreactivity
19,QVQLVESGGGLVQAGGSLRLSCAASGFTFVRNVMGWYRQAPGKERELVAAINTGGTTDYADSVKGRFTISRDNAKNTVYLQMNSLKPEDTAVYYCNADYDSQYHYLLRYDYWGQGTQVTVSS,low polyreactivity
20,QVQLVESGGGLVQAGGSLRLSCAASGFTFVRYAIGWYRQAPGKERELVSVISRSGGSTNYADSVKGRFTISRDNAKNTVYLQMNSLKPEDTAVYYCAASLQYRRVVKGGDYWGQGTQVTVSS,high polyreactivity
21,QVQLVESGGGLVQAGGSLRLSCAASGFTFVRYAMGWYRQAPGKERELVAAISSGGSTNYADSVKGRFTISRDNAKNTVYLQMNSLKPEDTAVYYCNAVSRKVYPGPMDYWGQGTQVTVSS,high polyreactivity
22,QVQLVESGGGLVQAGGSLRLSCAASGFTFVRYTMGWYRQAPGKERELVAAINRSGGNTYYADSVKGRFTISRDNAKKTVYLQMNSLKPEDTAVYYCAAGYYVQVSLKDYYWGQGTQVTVSS,high polyreactivity

row,Sequence,polyreactivity (PSR sort gate)
1,QVQLVESGGGLVQAGGSLRLSCAASGFTFVSNAMGWYRQAPGKERELVAAISGSGGSTYYADSVKGRFTISRDNAKNTVYLQMNSLKPEDTAVYYCAKGSRSYVRKMDYWGQGTQVTVSS,low polyreactivity
2,QVQLVESGGGLVQAGGSLRLSCAASGFTFVSNDMGWYRQAPGKERELVAAIRYRGGDTYYADSVKGRFTISRDNAKNTVYLQMNSLKPEDTAVYYCAVDVATYTAGWYYHGYDYWGQGTQVTVSS,low polyreactivity
3,QVQLVESGGGLVQAGGSLRLSCAASGFTFVSYAMGWYRQAPGKERELVAAITSNGGSTYYADSVKGRFTISRDNAKNTVYLQMNSLKPEDTAVYYCAAAGFWHGYFGYGYWGQGTQVTVSS,low polyreactivity
4,QVQLVESGGGLVQAGGSLRLSCAASGFTFVSYAMGWYRQAPGKERELVASITWTGGSTYYADSVKGRFTISRDYAKNTVYLQMNSLKPEDTAVYYCAAQQFYSGILGRYYWGQGTQVTVSS,low polyreactivity
5,QVQLVESGGGLVQAGGSLRLSCAASGFTFVVYAMGWYSQAPGKERELVARITWSGGSTYYADSVKGRFTISRDNAKNTVYLQMNSLKPEDTAVYDCNTRRYPYDGIEHDYWGQGTQVTVSS,low polyreactivity
6,QVQLVESGGGLVQAGGSLRLSCAASGFTFVYNAMGWYRQAPGKERELVAAITFSGGSTYYADSVNGRFTISRDNAKNTVYLQMNSLKPEDTAVYYCATDYPGVFVLRRSHPYDYWGQGTQVTVSS,low polyreactivity
7,QVQLVESGGGLVQAGGSLRLSCAASGFTFVYNAMGWYRQAPGKERELVASITQSGDITYYADSVKGRFTISRDNAKNTVYLQMNSLKPEDTAVYYCNKFQGTGDRFDSWGQGTQVTVSS,low polyreactivity
8,QVQLVESGGGLVQAGGSLRLSCAASGFTFVYYGMGWYRQAPGKERELVADISSGGNTYYADSVKGRFTISRDNAKNTVYLQMNSLKPEETAVYYCNKDARDEEGSSRTYDYWGQGTQVTVSS,low polyreactivity
9,QVQLVESGGGLVQAGGSLRLSCAASGFTFVYYVMGWYRQAPGKERELVAAINAGGGSTYYADSVKGRFTISRDNAKNTVYLQMISLKPEDTSVYYCNARVRVRLGRNWSSYYYWGQGTQVTVSS,high polyreactivity
10,QVQLVESGGGLVQAGGSLRLSCAASGFTFVYYVMGWYRQAPGKERELVAAINAGGGSTYYADSVKGRFTISRDNAKNTVYLQMNSLKPEDTAVYYCNARVRVRLGRNWSSYDYWGQGSQVTVSS,high polyreactivity
11,QVQLVESGGGLVQAGGSLRLSCAASGFTFWDYAMGWYRQAPGKERELVAAISDNDGSTDYADSVKGRFTISRDNAKNTVYLQMNSLKPEDTAVYYCNAEIEMPSKEGDYWGQGTQVTVSS,low polyreactivity
12,QVQLVESGGGLVQAGGSLRLSCAASGFTFWDYAMGWYRQAPGKERELVAAISWSGGSTYYADSVKGRFTISRDNAKNTVYLQMNSLKPEDTAVYYCNAVHYSHHGYDYWGQGTQVTVSS,low polyreactivity
13,QVQLVESGGGLVQAGGSLRLSCAASGFTFWGNAMGWSRQAPVKERELVAAISRSGGRTYYADSVKGRFTISRDNAKNTVYLQMNSLKPEDTAVYYCDAGSSHHFDYEGGYWGQGTQVTVSS,low polyreactivity
14,QVQLVESGGGLVQAGGSLRLSCAASGFTFWKYTMGWYRQAPGKERELVATISSSSGSTTYADSVKGRFTISRDNAKNTVYLQMYSLKPEDTAVYYCNVDDPFYSGVVEFDYWGQGTQVTVSS,low polyreactivity
15,QVQLVESGGGLVQAGGSLRLSCAASGFTFWLYAMGWYRQAPGKERELVATISWSGGSTYYADSVKGRFTISRDNAKNTVYLQMNSLKPEDTAVYYCAARLNYGNKYDYWGQGTQVTVSS,high polyreactivity
16,QVQLVESGGGLVQAGGSLRLSCAASGFTFWPNAMGWYRQAPGKERELVAAINWSGGSTYYADSVKGRFTISRDNAKNSVYLQMNSLKPEDTAVYYCNADPYLLEHDYWGQGTQVSVSS,low polyreactivity
17,QVQLVESGGGLVQAGGSLRLSCAASGFTFWPNAMGWYRQAPGKERELVAAINWSGGSTYYADSVKGRFTISRDNAKNTVFLQLNSLKPEDTAVYYCAAVSYDWYVGYEFWGQGTQVTVSS,low polyreactivity
18,QVQLVESGGGLVQAGGSLRLSCAASGFTFWQYAMGWYRQAPGKERELVAAITRDVGSTYYADSVKGRFTISRDNAKNTVYLQMNSLKPEDTAVYYCAKLFGGTYYEYDYWGQGTHVTVSS,low polyreactivity
19,QVQLVESGGGLVQAGGSLRLSCAASGFTFWRNAMGLYRQAPGKERELDAAISWRGGSTYYADCVKGRFTISRDNAKNTVYFQMNSLKPEDTAVYYCNVVYFRYYSGEFDYWGQGTQVTVSS,high polyreactivity
20,QVQLVESGGGLVQAGGSLRLSCAASGFTFWRNTMGSYRQARGKEREFVAAIDWSGGSTTYADSVKGRFTISRDNAKNTVYLQMNSLKKEDTAVYYCAAAERRRHYWWGQESDYWGQGTQVTVSS,low polyreactivity
21,QVQLVESGGGLVQAGGSLRLSCAASGFTFWRYAMGWYRQAPGKDRELVAAISSSGGSTYYADSVKGRFTISRDNAKNTVYLQMNSLKPEVTAVYYCATSVRFVRGWGYSYRGYDYWGQGTQVTVSS,high polyreactivity
